Assay results reported in US20190330346A1 (REMD BIOTHERAPEUTICS, published 2019).

Tests used:
[1] = target: T1, human PD-1 (human, UniProt Q15116 25-167); assay: SPR, multiple-cycle, crude Fab from E. coli; antigen form not stated
T1 construct: The immunogen was PD1/Fc (Leu25-Gln167 fused to human IgG1 Pro100-Lys330); also called huPD-1; hPD-1
Text: A homology model of mouse anti-PD1 Fv was built wherein putative back mutation sites (i.e., buried residues of the frameworks that are different in the mouse and human acceptor sequences) were identified. There were a total of 14 putative back mutation sites. A variant humanized Fab comprising all 14 of the putative back mutation sites of PD1-grafted Ab mutated back to their mouse counterparts (hereinafter identified as “PD1-BM Ab”) comprising the heavy chain variable region sequence set forth in SEQ ID NO: 38 and the light chain variable region sequence set forth in SEQ ID NO: 39, was synthesized. In addition, 14 variants of PD1-BM Ab (hereinafter identified as Fabs 1-14), each having at least one of the putative 14 back mutation sites in PD1-BM Ab mutated back to the human counterpart, were synthesized. These constructs were used to transform E. coli TG1 strain. Single colonies were pick for each individual construct and grown in E. coli medium. Crude chimeric and humanized Fabs were collected and subjected to multiple-cycle affinity estimation by Surface Plasmon Resonance (SPR).

[2] = target: T2, His-tagged human PD-1 protein (human, UniProt Q15116 25-170, limits assumed); assay: SPR; Fab-SASA captured on immobilised BSA, his-tagged PD-1 as analyte
T2 construct: SPR analyte; also called his-tagged antigen PD-1; not shown: His tag
Protocol: For affinity ranking, BSA was immobilized onto the sensor chip using amine coupling method. The selected Fab-SASA secreted to the culture medium was injected and captured by BSA through the tight binding between BSA and SASA (capture phase). After equilibration, his-tagged antigen PD-1 was injected for 300 seconds (association phase) followed by the injection of running buffer for 900 seconds (dissociation phase). The surface was regenerated before the injection of another three Fab-SASA clones. The process was repeated until all selected Fab-SASA proteins were analyzed. Responses of reference flow cell were subtracted from those of Fab-SASA flow cells during each cycle. The antibodies were ranked by their dissociation rate constants (off-rates, […]). […]

T1 sequence (Q15116 25-167 limits assumed): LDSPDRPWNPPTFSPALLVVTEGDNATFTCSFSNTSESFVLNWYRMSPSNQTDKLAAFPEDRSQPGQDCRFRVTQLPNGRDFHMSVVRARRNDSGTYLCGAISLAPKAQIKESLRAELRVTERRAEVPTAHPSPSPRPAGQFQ
T2 sequence (Q15116 25-170 limits assumed): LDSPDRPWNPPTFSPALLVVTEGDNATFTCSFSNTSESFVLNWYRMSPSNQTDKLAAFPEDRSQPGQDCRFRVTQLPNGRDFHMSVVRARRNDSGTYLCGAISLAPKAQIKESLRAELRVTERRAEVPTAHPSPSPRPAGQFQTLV

Binder | Kd [1] [nM] | koff [1] [s⁻¹] | kon [1] [M⁻¹ s⁻¹] | Kd [2] [nM] | koff [2] [s⁻¹] | kon [2] [M⁻¹ s⁻¹]
chimeric Fab (Fab, V domains shown, Crude murine-human chimeric Fab from E. coli TG1, made with the HCVR and LCVR of PD1#3; Only the variable domains are tied to it) VH: EVQLVESGGDLVKPGGSLKLSCAASGFVFSRYDMAWVRQTPEKRLEWVAFISGGGSNTYYPDTVKGRFTISRDNAKNTLYLQMTSLKSEDTAVYYCISPYYYAMEYWGQGTSVTVSS VL: DIVMTQSHKFISTSVGDRVSITCKASQDVDTAVAWYQQKPGQSPKLLIHWASTRHTGVPDRFTGGGSGTDFTLTLSNVQSEDLADYFCQQYSTFPWTFGGGTRLEIK | 0.5 | 0.00015 | 300000 | – | – | –
AS05616 (Fab, V domains shown, Humanized Fab-SASA clone from the phage library) VH: EVQLVESGGGLVQPGGSLRLSCAASGFVFSRYDMAWVRQTPGKGLEWVSFISGGGSNTYYPDTVKGRFTISRDNSKNTLYLQMNSLRAEDTAVYYCISPYYYAMEYWGQGTTVTVSS VL: DIQMTQSPSSISTSVGDRVTITCKASQDVDTAVAWYQQKPGKSPKLLIHWASTRHTGVPSRFSGSGSGTDFTLTISSLQPEDFADYFCQQYSTFPWTFGGGTKVEIK | – | – | – | 0.311 | 0.000105 | 336000
Fab 7 (Fab, V domains shown, Crude Fab from E. coli; also called PD1-BM VL-S43A) VH: EVQLVESGGGLVQPGGSLRLSCAASGFVFSRYDMAWVRQTPGKGLEWVAFISGGGSNTYYPDTVKGRFTISRDNSKNTLYLQMNSLRAEDTAVYYCISPYYYAMEYWGQGTTVTVSS VL: DIQMTQSPSSISTSVGDRVTITCKASQDVDTAVAWYQQKPGKAPKLLIHWASTRHTGVPSRFSGSGSGTDFTLTLSSVQPEDLADYFCQQYSTFPWTFGGGTKLEIK | 0.59 | 0.00016 | 270000 | – | – | –
Fab 8 (Fab, V domains shown, Crude Fab from E. coli; also called PD1-BM VL-H49Y) VH: EVQLVESGGGLVQPGGSLRLSCAASGFVFSRYDMAWVRQTPGKGLEWVAFISGGGSNTYYPDTVKGRFTISRDNSKNTLYLQMNSLRAEDTAVYYCISPYYYAMEYWGQGTTVTVSS VL: DIQMTQSPSSISTSVGDRVTITCKASQDVDTAVAWYQQKPGKSPKLLIYWASTRHTGVPSRFSGSGSGTDFTLTLSSVQPEDLADYFCQQYSTFPWTFGGGTKLEIK | 0.57 | 0.00019 | 340000 | – | – | –
AS05618 (Fab, V domains shown, Humanized Fab-SASA clone from the phage library) VH: EVQLVESGGGLVQPGGSLRLSCAASGFVFSRYDMAWVRQTPGKGLEWVSFISGGGSNTYYPDTVKGRFTISRDNSKNTLYLQMNSLRAEDTAVYYCISPYYYAMEYWGQGTTVTVSS VL: DIQMTQSPSSISTSVGDRVTITCKASQDVDTAVAWYQQKPGKSPKLLIHWASTRHTGVPSRFSGSGSGTDFTLTISSLQPEDFADYFCQQYSTFPWTFGGGTKLEIK | – | – | – | 0.41 | 0.000151 | 369000
Fab 13 (Fab, V domains shown, Crude Fab from E. coli; also called PD1-BM VL-F87Y) VH: EVQLVESGGGLVQPGGSLRLSCAASGFVFSRYDMAWVRQTPGKGLEWVAFISGGGSNTYYPDTVKGRFTISRDNSKNTLYLQMNSLRAEDTAVYYCISPYYYAMEYWGQGTTVTVSS VL: DIQMTQSPSSISTSVGDRVTITCKASQDVDTAVAWYQQKPGKSPKLLIHWASTRHTGVPSRFSGSGSGTDFTLTLSSVQPEDLADYYCQQYSTFPWTFGGGTKLEIK | 0.29 | 0.0001 | 350000 | – | – | –
Fab 5 (Fab, V domains shown, Crude Fab from E. coli; also called PD1-BM VL-I11V) VH: EVQLVESGGGLVQPGGSLRLSCAASGFVFSRYDMAWVRQTPGKGLEWVAFISGGGSNTYYPDTVKGRFTISRDNSKNTLYLQMNSLRAEDTAVYYCISPYYYAMEYWGQGTTVTVSS VL: DIQMTQSPSSVSTSVGDRVTITCKASQDVDTAVAWYQQKPGKSPKLLIHWASTRHTGVPSRFSGSGSGTDFTLTLSSVQPEDLADYFCQQYSTFPWTFGGGTKLEIK | 0.34 | 0.00013 | 370000 | – | – | –
AS05614 (Fab, V domains shown, Humanized Fab-SASA clone from the phage library) VH: EVQLVESGGGLVQPGGSLRLSCAASGFVFSRYDMAWVRQTPGKGLEWVSFISGGGSNTYYPDTVKGRFTISRDNSKNTLYLQMNSLRAEDTAVYYCISPYYYAMEYWGQGTTVTVSS VL: DIQMTQSPSSISTSVGDRVTITCKASQDVDTAVAWYQQKPGKSPKLLIHWASTRHTGVPSRFSGSGSGTDFTLTLSSVQPEDFATYFCQQYSTFPWTFGGGTKVEIK | – | – | – | 0.37 | 0.000134 | 363000
Fab 3 (Fab, V domains shown, Crude Fab from E. coli; also called PD1-BM VH-I97A) VH: EVQLVESGGGLVQPGGSLRLSCAASGFVFSRYDMAWVRQTPGKGLEWVAFISGGGSNTYYPDTVKGRFTISRDNSKNTLYLQMNSLRAEDTAVYYCASPYYYAMEYWGQGTTVTVSS VL: DIQMTQSPSSISTSVGDRVTITCKASQDVDTAVAWYQQKPGKSPKLLIHWASTRHTGVPSRFSGSGSGTDFTLTLSSVQPEDLADYFCQQYSTFPWTFGGGTKLEIK | 1.1 | 0.00035 | 320000 | – | – | –
Fab 9 (Fab, V domains shown, Crude Fab from E. coli; also called PD1-BM VL-L75I) VH: EVQLVESGGGLVQPGGSLRLSCAASGFVFSRYDMAWVRQTPGKGLEWVAFISGGGSNTYYPDTVKGRFTISRDNSKNTLYLQMNSLRAEDTAVYYCISPYYYAMEYWGQGTTVTVSS VL: DIQMTQSPSSISTSVGDRVTITCKASQDVDTAVAWYQQKPGKSPKLLIHWASTRHTGVPSRFSGSGSGTDFTLTISSVQPEDLADYFCQQYSTFPWTFGGGTKLEIK | 0.24 | 8e-05 | 330000 | – | – | –
AS05617 (Fab) (Fab, V domains shown, Humanized Fab-SASA clone from the phage library) VH: EVQLVESGGGLVQPGGSLRLSCAASGFVFSRYDMAWVRQTPGKGLEWVSFISGGGSNTYYPDTVKGRFTISRDNSKNTLYLQMNSLRAEDTAVYYCISPYYYAMEYWGQGTTVTVSS VL: DIQMTQSPSSISTSVGDRVTITCKASQDVDTAVAWYQQKPGKSPKLLIYWASTRHTGVPSRFSGSGSGTDFTLTISSLQPEDFADYFCQQYSTFPWTFGGGTKVEIK | – | – | – | 0.0854 | 3e-05 | 351000
Fab 1 (Fab, V domains shown, Crude Fab from E. coli; also called PD1-BM VH-T40A) VH: EVQLVESGGGLVQPGGSLRLSCAASGFVFSRYDMAWVRQAPGKGLEWVAFISGGGSNTYYPDTVKGRFTISRDNSKNTLYLQMNSLRAEDTAVYYCISPYYYAMEYWGQGTTVTVSS VL: DIQMTQSPSSISTSVGDRVTITCKASQDVDTAVAWYQQKPGKSPKLLIHWASTRHTGVPSRFSGSGSGTDFTLTLSSVQPEDLADYFCQQYSTFPWTFGGGTKLEIK | 0.32 | 9.8e-05 | 310000 | – | – | –
Fab 11 (Fab, V domains shown, Crude Fab from E. coli; also called PD1-BM VL-L83F) VH: EVQLVESGGGLVQPGGSLRLSCAASGFVFSRYDMAWVRQTPGKGLEWVAFISGGGSNTYYPDTVKGRFTISRDNSKNTLYLQMNSLRAEDTAVYYCISPYYYAMEYWGQGTTVTVSS VL: DIQMTQSPSSISTSVGDRVTITCKASQDVDTAVAWYQQKPGKSPKLLIHWASTRHTGVPSRFSGSGSGTDFTLTLSSVQPEDFADYFCQQYSTFPWTFGGGTKLEIK | 0.72 | 0.00022 | 300000 | – | – | –
Fab 12 (Fab, V domains shown, Crude Fab from E. coli; also called PD1-BM VL-D85T) VH: EVQLVESGGGLVQPGGSLRLSCAASGFVFSRYDMAWVRQTPGKGLEWVAFISGGGSNTYYPDTVKGRFTISRDNSKNTLYLQMNSLRAEDTAVYYCISPYYYAMEYWGQGTTVTVSS VL: DIQMTQSPSSISTSVGDRVTITCKASQDVDTAVAWYQQKPGKSPKLLIHWASTRHTGVPSRFSGSGSGTDFTLTLSSVQPEDLATYFCQQYSTFPWTFGGGTKLEIK | 0.28 | 9.4e-05 | 330000 | – | – | –
Fab 6 (Fab, V domains shown, Crude Fab from E. coli; also called PD1-BM VL-T13A) VH: EVQLVESGGGLVQPGGSLRLSCAASGFVFSRYDMAWVRQTPGKGLEWVAFISGGGSNTYYPDTVKGRFTISRDNSKNTLYLQMNSLRAEDTAVYYCISPYYYAMEYWGQGTTVTVSS VL: DIQMTQSPSSISASVGDRVTITCKASQDVDTAVAWYQQKPGKSPKLLIHWASTRHTGVPSRFSGSGSGTDFTLTLSSVQPEDLADYFCQQYSTFPWTFGGGTKLEIK | 0.25 | 9.6e-05 | 380000 | – | – | –
Fab 14 (Fab, V domains shown, Crude Fab from E. coli; also called PD1-BM VL-L104V) VH: EVQLVESGGGLVQPGGSLRLSCAASGFVFSRYDMAWVRQTPGKGLEWVAFISGGGSNTYYPDTVKGRFTISRDNSKNTLYLQMNSLRAEDTAVYYCISPYYYAMEYWGQGTTVTVSS VL: DIQMTQSPSSISTSVGDRVTITCKASQDVDTAVAWYQQKPGKSPKLLIHWASTRHTGVPSRFSGSGSGTDFTLTLSSVQPEDLADYFCQQYSTFPWTFGGGTKVEIK | 0.68 | 0.0002 | 300000 | – | – | –
Fab 10 (Fab, V domains shown, Crude Fab from E. coli; also called PD1-BM VL-V78L) VH: EVQLVESGGGLVQPGGSLRLSCAASGFVFSRYDMAWVRQTPGKGLEWVAFISGGGSNTYYPDTVKGRFTISRDNSKNTLYLQMNSLRAEDTAVYYCISPYYYAMEYWGQGTTVTVSS VL: DIQMTQSPSSISTSVGDRVTITCKASQDVDTAVAWYQQKPGKSPKLLIHWASTRHTGVPSRFSGSGSGTDFTLTLSSLQPEDLADYFCQQYSTFPWTFGGGTKLEIK | 0.29 | 9.1e-05 | 320000 | – | – | –
